Test: Aggregation by SEC-HPLC
Type: physicochemical
Method: As determined by SEC-HPLC, less than 5% material was aggregated. […] (See Figure 2 and corresponding Brief Description). […] (See Figure 3 and corresponding Brief Description). In vitro cytotoxic activity was assessed for the HCT-116-2G10 clone expressing human nectin-4. (See Figure 4 and corresponding Brief Description).
As a comparator ADC, the HA22 anti-Nectin-4 mAb was conjugated to maleimidocaproyl-valine-citrulline-PABC-MMAE to generate enfortumab vedotin. Briefly, a 15 mg/mL solution of the HA22 in 10 mM acetate 1% sorbitol, 3% L-arginine, pH 5.0 was supplemented with a 20% volume of 0.1 M Tris, 25 mM EDTA and 750 mM NaCl, pH 8.4 to adjust the pH of the solution to 7.5, 5 mM EDTA and 150 mM sodium chloride. […] The mixture was stirred for 60 minutes at 5° C, then for 15 additional minutes following the addition of 1 molar equivalents of N-acetylcysteine relative to cysteine reactive linker-MMAE compound. Excess quenched cysteine reactive linker-payload and other reaction components were removed by ultrafiltration/diafiltration of the antibody drug conjugate (ADC) with 10 volumes of 20 mM histidine, pH 6.0. The drug-antibody ratio (DAR) according to LC-MS analysis was 3.79 toxins per conjugated mAb. As determined by SEC-HPLC, less than 1% material was aggregated.

With “enfortumab vedotin: HA22 anti-Nectin-4 mAb conjugated to maleimidocaproyl-valine-citrulline-PABC-MMAE; comparator ADC” the material aggregated was “less than 1%”.
